Test results as given in patent US20160152995A1, “METHODS AND COMPOSITIONS TO IMPROVE THE SPREAD OF CHEMICAL SIGNALS IN PLANTS” (PIONEER HI-BRED INTERNATIONAL, INC., priority 2013, published 2016).

Test system: E. coli assay strain Km3
Type: cell-based
Details: for 0.2 ppm 48 hr (colony color intensity) / Control 84 hr (colony color intensity, background): M9 assay plates, ImageJ colony color intensity; for 0.2 ppm 48 hr (colony color intensity): 0.2 ppm chlorsulfuron, 48 hr at 30° C.; for Control 84 hr (colony color intensity, background): no inducer, 84 hr at 30° C.; for 0.2 ppm 48 hr/Control 84 hr: ratio of colony color with 0.2 ppm chlorsulfuron at 48 hr over no-inducer control at 84 hr; for IND = induction with 200 ppb Cs at 24 hrs (blue colony color intensity thru ImageJ analysis) / F. IND = fold induction: induction with 200 ppb Cs at 24 hrs/repression at 48 hrs / REP = repression measured without inducer after 48 hrs (blue colony color intensity thru ImageJ analysis): library L8 hits, M9 Xgal colony assay; for IND = induction with 200 ppb Cs at 24 hrs (blue colony color intensity thru ImageJ analysis): 200 ppb Chlorsulfuron; for F. IND = fold induction: induction with 200 ppb Cs at 24 hrs/repression at 48 hrs: ratio IND (200 ppb Cs, 24 hrs) / REP (48 hrs)
Description: Library L6 was assembled, rescued, ligated into pVER7314, transformed into E. coli KM3 and plated out onto LB carbenicillin/kanamycin, and carbenicillin only control media as before. Library plates were then picked into 42 384-well microtiter plates (˜16,000 clones) containing 60 μl LB carbenicillin (Cb) broth per well. After overnight growth at 37° C. the cultures were stamped onto M9 assay plates containing no inducer, 0.2 ppm, and 2.0 ppm chlorsulfuron as test inducer. Following incubation at 30° C. for ˜48 hrs, putative hits responding to chlorsulfuron treatment as determined by increased blue colony color were re-arrayed into six 96-well microtiter plates and used to stamp a fresh set of M9 assay plates to confirm the above results. For a more detailed analysis of the relative induction by chlorsulfuron, digital photographs were taken of the plates after various time points of incubation at 30° C. and colony color intensity measured using the digital image analysis freeware program ImageJ (Rasband, US National Institutes of Health, Bethesda, Md., USA, rsb.info.nih.gov/ij/, 1997-2007). […] From this analysis sequence-activity relationships were derived. […] Briefly, C at position 100, and Q at positions 108 and 109 strongly correlated with activation, while R at position 138, L at position 170, and A or G at position 173 were highly preferred in clones with the lowest background activity. […] This information will aid in the design of further libraries to improve responsiveness to chlorsulfuron.
Library L8 construction and screening. Fourth round shuffling incorporated the best diversity from Rd3 shuffling (BB1860) as well as computational diversity (Table 14). As diversity was very high the library oligo mix was spiked into the parental hit variant oligo mix (5, 10, and 25% mixes) to titer down the number of residue changes per clone. In addition, to varying residues for Cs activity, seven residues (C68, C86, C88, C121, C144, C195, and C203) were varied with TetR family phylogenetic substitutions in an attempt to reduce the number of cysteine residues in the repressor. The PCR assembled libraries were cloned Sac1/Asc1 into pVER7334. This plasmid encodes PBAD promoter controlled expression of a plant optimized TetR DNA binding domain fused to the wt ligand binding domain of TetR(B) encoded by native Tn10 sequence on a Sac1 to Asc1 fragment. Approximately 15,000 clones were screened for blue colony color on the M9 Xgal assay plates +/−200 ppb Chlorsulfuron (Cs). Clones were ranked by ratio of color with inducer after 24 hrs incubation over colony color without inducer for 48 hrs of incubation. The sequence trend in the overall larger population of hits (first re-array) was that L55, R104, W105 and L170 were maintained while the C144A substitution was highly preferred. Sequence trends within the hit population were then noted with respect to repression, induction and fold induction (which corrects for leakiness).
Mutagenesis reactions were transformed into library strain Km3 and 96 colonies tested for substitution by DNA sequence analysis. Substitutions representing each possible residue at each position were then re-arrayed in triplicate onto M9 X-gal assay plates with 0, 20 and 200 ppb Chlorsulfuron. Plates were incubated at 37° C. for 24 and 48 hrs prior to imaging. Residue substitutions were then ranked by activation (emphasis on 20 ppb Cs) and repression characteristics (emphasis on 48 hr time point). The mutation with the greatest impact on activity was substitution of residue N82 to phenylalanine or tyrosine. […] All other preferred substitutions shown in Table 18 either improved repression or improved sensitivity to inducer without compromising repressor function. Certain residues were indispensible to function such as R104, W105, and W174 as substitutions were not allowed. Other residue positions such as R138 and K177 were also flagged as critical since functional substitutions were extremely limited. […]

B1: L6-1B03 (protein)
chain: MGSRLDKSKVINSALELLNEVGIEGLTTRKLAQKLGVEQPTLYWHVKNKRALLDALAIEMMDRHATHICPLEGESWQDFLRNNAKSMRCALLSHRDGAKVCLGTRWTEQQYEAAENMLAFLCQQGFSLENALYAVSAVRVFTLGCVLFDQESQVAKEERETPTTASMPPLLRQAWELKDHQGAEPAFLFGLELIICGLEKQLKCESGS
modifications: Sulfonylurea responsive repressor
Question: What does the source list for B1?
Answer: 0.2 ppm 48 hr (colony color intensity): 30.0; Control 84 hr (colony color intensity, background): 6.6; 0.2 ppm 48 hr/Control 84 hr: 4.6

B2: L6-2C09 (protein)
chain: MGSRLDKSKVINSALELLNEVGIEGLTTRKLAQKLGVEQPTLYWHVKNKRALLDALAIEMMDRHQTHYCPLEGESWQDFLRNTAKSMRCALLSHRDGAKVCLGTRWTEQLYETAENQLAFLCQQGFSLENALYAMSAVRVFTLGCVLFDQELQVAKEERETPTTASMPPLLRQAWELKDHQGAEPAFLFGLELIICGLEKQLKCESGS
modifications: Sulfonylurea responsive repressor
Question: Which “0.2 ppm 48 hr (colony color intensity)” value does the source give for B2 here?
Answer: 13.6

Question: And the “Control 84 hr (colony color intensity, background)” value?
Answer: 5.2

Question: And the “0.2 ppm 48 hr/Control 84 hr” value?
Answer: 2.6

B3: L6-2D07 (protein)
chain: MGSRLDKSKVINSALELLNEVGIEGLTTRKLAQKLGVEQPTLYWHVKNKRALLDALAIEMMDRHQTHFCPLEGESWQDFLRNTAKSMRCALLSHRDGAKVCLGTRWTEQQYETAENMLAFLCQQGFSLENALYAMSAVRVFTLGCVLFDQESQVAKEERETPTTASMPPLVRQAWELKDHQGAEPAFLFGLELIICGLEKQLKCESGS
modifications: Sulfonylurea responsive repressor
Question: What does the source list for B3?
Answer: 0.2 ppm 48 hr (colony color intensity): 20.0; Control 84 hr (colony color intensity, background): 5.8; 0.2 ppm 48 hr/Control 84 hr: 3.4

B4: L6-3H02: SuR polypeptide, SEQ ID NO:94 (protein)
chain: MGSRLDKSKVINSALELLNEVGIEGLTTRKLAQKLGVEQPTLYWHVKNKRALLDALAIEMMDRHATHYCPLEGESWQDFLRNTAKSMRCALLSHRDGAKVCLGTRWTEQHYESAENMLAFLCQQGFSLENALYAVSAVRVFTLGCVLFDQESQVAKEERETPTTASMPPLVRQAWELKVHQGAEPAFLFGLELIICGLEKQLKCESGS
modifications: Sulfonylurea responsive repressor
Question: How did the “0.2 ppm 48 hr (colony color intensity)” value turn out when B4 was run?
Answer: 15.8

Question: What about the “Control 84 hr (colony color intensity, background)” value of the same molecule?
Answer: 5.6

Question: What about the “0.2 ppm 48 hr/Control 84 hr” value of the same molecule?
Answer: 2.8

B5: L6-4D10: library L6 clone, parent of library L8 hits (protein)
chain: MGSRLDKSKVINSALELLNEVGIEGLTTRKLAQKLGVEQPTLYWHVKNKRALLDALAIEMMDRHQTHYCPLEGESWQDFLRNNAKSMRCALLSHRDGAKVCLGTRWTEKQYESAENMLAFLCQQGFSLENALYAVSAVRVFTLGCVLFDQESQVAKEERETPTTASMPPLLRQAWELKDHQGAEPAFLFGLELIICGLEKQLKCESGS
modifications: Sulfonylurea responsive repressor
notes: library L6 clone, parent of library L8 hits
Question: Which “0.2 ppm 48 hr (colony color intensity)” value does the source give for B5 here?
Answer: 18.4

Question: And the “Control 84 hr (colony color intensity, background)” value?
Answer: 5.0

Question: What about the “IND = induction with 200 ppb Cs at 24 hrs (blue colony color intensity thru ImageJ analysis)” value of the same molecule?
Answer: 0.2

Question: What about the “F. IND = fold induction: induction with 200 ppb Cs at 24 hrs/repression at 48 hrs” value of the same molecule?
Answer: 0.4

Question: What about the “REP = repression measured without inducer after 48 hrs (blue colony color intensity thru ImageJ analysis)” value of the same molecule?
Answer: 0.6

Question: And the “0.2 ppm 48 hr/Control 84 hr” value?
Answer: 3.7

B6: L6-5F05 (protein)
chain: MGSRLDKSKVINSALELLNEVGIEGLTTRKLAQKLGVEQPTLYWHVKNKRALLDALAIEMMDRHATHICPLEGESWQDFLRNNAKSMRCALLSHRDGAKVCLGTRWTEQQYEAAENQLAFLCQQGFSLENALYAVSAVRVFTLGCVLFDQELQVAKEERETPTTASMPPLLRQAWELKDHQGAEPAFLFGLELIICGLEKQLKCESGS
modifications: Sulfonylurea responsive repressor
Question: For B6, which “0.2 ppm 48 hr (colony color intensity)” value is on record?
Answer: 22.0

Question: And the “Control 84 hr (colony color intensity, background)” value?
Answer: 5.4

Question: And the “0.2 ppm 48 hr/Control 84 hr” value?
Answer: 4.1

B7: L6-5G06 (protein)
chain: MGSRLDKSKVINSALELLNEVGIEGLTTRKLAQKLGVEQPTLYWHVKNKRALLDALAIEMMDRHQTHYCPLEGESWQDFLRNNAKSMRCALLSHRDGAKVCLGTRWTEQQYETAENQLAFLCQQGFSLENALYAVSAVRVFTLGCVLFDQELQVAKEERETPTTASMPPLLRQGWELKDHQGAEPAFLFGLELIICGLEKQLKCESGS
modifications: Sulfonylurea responsive repressor
Question: B7 was tested. Which “0.2 ppm 48 hr (colony color intensity)” value did it give?
Answer: 34.4

Question: What about the “Control 84 hr (colony color intensity, background)” value of the same molecule?
Answer: 7.0

Question: What about the “0.2 ppm 48 hr/Control 84 hr” value of the same molecule?
Answer: 4.9

B8: L6-5H06 (protein)
chain: MGSRLDKSKVINSALELLNEVGIEGLTTRKLAQKLGVEQPTLYWHVKNKRALLDALAIEMMDRHQTHICPLEGESWQDFLRNNAKSMRCALLSHRDGAKVCLGTRWTEKQYETAENMLAFLCQQGFSLENALYAVSAVRVFTLGCVLFDQELQVAKEERETPTTASMPPLVRQAWELKDHQGAEPAFLFGLELIICGLEKQLKCESGS
modifications: Sulfonylurea responsive repressor
Question: How did the “0.2 ppm 48 hr (colony color intensity)” value turn out when B8 was run?
Answer: 13.7

Question: What about the “Control 84 hr (colony color intensity, background)” value of the same molecule?
Answer: 5.1

Question: What about the “0.2 ppm 48 hr/Control 84 hr” value of the same molecule?
Answer: 2.7

B9: L6-5H12 (protein)
chain: MGSRLDKSKVINSALELLNEVGIEGLTTRKLAQKLGVEQPTLYWHVKNKRALLDALAIEMMDRHATHYCPLEGESWQDFLRNNAKSMRCALLSHRDGAKVCLGTRWTEKQYETAENQLAFLCQQGFSLENALYAMSAVRVFTLGCVLFDQELQVAKEERETPTTASMPPLVRQAWELKDHQGAEPAFLFGLELIICGLEKQLKCESGS
modifications: Sulfonylurea responsive repressor
Question: B9 was tested. Which “0.2 ppm 48 hr (colony color intensity)” value did it give?
Answer: 23.7

Question: What about the “Control 84 hr (colony color intensity, background)” value of the same molecule?
Answer: 5.7

Question: And the “0.2 ppm 48 hr/Control 84 hr” value?
Answer: 4.2

B10: L6-6F07 (protein)
chain: MGSRLDKSKVINSALELLNEVGIEGLTTRKLAQKLGVEQPTLYWHVKNKRALLDALAIEMMDRHATHLCPLEGESWQDFLRNTAKSMRCALLSHRDGAKVCLGTRWTEQQYESAENMLAFLCQQGFSLENALYAMSAVRVFTLGCVLFDQESQVAKEERETPTTASMPPLLRQAWELKDHQGAEPAFLFGLELIICGLEKQLKCESGS
modifications: Sulfonylurea responsive repressor
Question: With B10 as the molecule, how does the “0.2 ppm 48 hr (colony color intensity)” value read?
Answer: 11.6

Question: What about the “Control 84 hr (colony color intensity, background)” value of the same molecule?
Answer: 5.1

Question: And the “0.2 ppm 48 hr/Control 84 hr” value?
Answer: 2.3

B11: L8-3F09 (protein)
chain: MARLDKSKVINSALELLNEVGIEGLTTRKLAQKLGVEQPTLYWHVKNKRALLDALAIEMMDRHQTHYSPLEGESWQDFLRNNAKSLRCALLSHRDGAKVCLGTRWTEQQYESAENMLAFLTQQGFSLENALYALTAVRVFTLGWVLFDQESQVAKEERETPTTDSMPPLLRQAWELKDHQGAEPAFLFGLELIIAGLEKQLKRESGS
modifications: Sulfonylurea responsive repressor
Question: What does the source list for B11?
Answer: IND = induction with 200 ppb Cs at 24 hrs (blue colony color intensity thru ImageJ analysis): 5.6; F. IND = fold induction: induction with 200 ppb Cs at 24 hrs/repression at 48 hrs: 9.7; REP = repression measured without inducer after 48 hrs (blue colony color intensity thru ImageJ analysis): 0.6

B12: L8-1A04 (protein)
chain: MARLDKSKVINSALELLNEVGIEGLTTRKLAQKLGVEQPTLYWHVKNKRALLDALAIEMMDRHQTHYLPLEGESWQDFLRNNAKSCRNALLSHRDGAKVCLGTRWTEQQYETAENMLAFLTQQGFSLENALYALEAARVFTLGAVLFDQESQVAKEERETPTTDSMPPLLRQAWELKDHQGAEPAFLFGLELIISGLEKQLKRESGS
modifications: Sulfonylurea responsive repressor
Question: Which results are given for B12?
Answer: IND = induction with 200 ppb Cs at 24 hrs (blue colony color intensity thru ImageJ analysis): 12.2; F. IND = fold induction: induction with 200 ppb Cs at 24 hrs/repression at 48 hrs: 6.2; REP = repression measured without inducer after 48 hrs (blue colony color intensity thru ImageJ analysis): 2.0
